{"source": "patent US8728980B2", "about": "“Peptide microarray and method of use” (The Regents of the University of California, priority 2011, dated 2014)", "note": "Non-standard residues stand in square brackets, D forms with d. Primed or numbered codes have the meaning given here. No end group written: not given here. Me3 = trimethylation of the lysine side chain; Me3(3) = trimethyl (trimethylated lysine); Lys(Me3) = C[N+](C)(C)CCCC[C@H](N)C(=O)O", "data": [{"target": "T1, Polycomb protein chromodomain (Drosophila melanogaster, UniProt P26017)", "T1 construct": "The chromodomain (a.a. 1-90) of Polycomb protein was expressed as GST-tagged fusion protein; made in house", "T1 sequence (P26017 1-90)": "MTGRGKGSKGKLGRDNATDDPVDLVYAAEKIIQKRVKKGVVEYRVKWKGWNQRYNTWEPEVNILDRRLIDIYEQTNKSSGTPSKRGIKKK", "test": "Peptide microarray binding of GST-tagged Polycomb chromodomain", "design": "dose or concentration left out as unconfirmed", "settings": "Binder if at least two of three spots pass p-value cutoff 0.001 from background", "text": "There are a total of 46 histone peptide sequences (9 a.a. long) with a single lysine-trimethylation site which are conserved between the human and fruit fly H2, H3 and H4 proteins (Table II). These were screened for Polycomb protein chromodomain binding by peptide microarray. Each peptide sequence was screened as triplets, and the fluorescence intensity was quantified with background subtraction individually for each spot from the microarray images by ImageJ^9 and the whole data set was fit to a mixed Gaussian distribution model (FIG. 8, Table III).\nTwelve out of the 46 sequences were identified as positive binders under these criteria. Ten of these microarray-identified binders also yielded high mutation matrix score in an independent prediction (Table IV).\nThe chromodomain (a.a. 1-90) of Polycomb protein was expressed as GST-tagged fusion protein and purified as described in [65]. The purity of the protein was examined by SDS-PAGE electrophoresis followed by both Coomassie staining and western blot using an Anti-GST-HRP conjugate (Santa Cruz Biotechnology). The concentration of purified protein was determined by BCA assay (Amresco). A total of 46 trimethylated histone peptides were synthesized by Sigma Aldrich (desalted, mass spectrometry checked). The peptides were then printed as triplets onto glass slides (ArrayIt), together with a Cy3 marker and an anti-GST (mouse monoclonal) antibody (Thermo) as references.\nThe peptide microarray was rinsed with TBST buffer (25 mM Tris, 125 mM NaCl, 0.05% Tween-20, pH 8) followed by blocking with 5% non-fat milk in TBST (room temperature 1 hour or 4° C. overnight). The slide was then incubated at 4° C. with Polycomb-GST fusion protein at a final concentration of […] in 5% non-fat milk/TBST for 6 hours. After washing three times for 10 minutes each with TBST, the slide was incubated with an anti-GST mouse monoclonal IgG antibody (Thermo) at a final concentration of 1 μg/mL in 5% non-fat milk/TBST and shaken gently for 1 hour at room temperature. A secondary anti-mouse IgG Dylight-488 conjugated antibody (Thermo) was added to a final concentration of 0.1 μg/mL after three more cycles of 10 minutes washing with TBST. The slide was shaken for 1 hr at room temperature and washed three times with TBST.\nThe dried microarray slides were scanned using a Hamamatsu NanoZoomer 2.0HT Slide Scanning System (Neuroscience Light Microscopy Facility, UCSD). Data quantification were processed using the microarray processing software ImageJ^9, where the fluorescent intensity of a microarray spot was defined as its own intensity minus the background intensity around it on the scanned image.", "values": [{"sequence": "LATKAARKS [template histone H3 peptide L20 to S28 with trimethylated Lys27, reference compound]", "Array Verification": "Binder"}, {"sequence": "NAARDNKKT (also: trimethylated Lys, site not given here)", "Array Verification": "NonBinder"}, {"sequence": "GKDSGKAKA (not fully specified (residue 8); also: trimethylated lysine, site not given here)", "Array Verification": "NonBinder"}, {"sequence": "GNAARDNKK (also: trimethylated Lys, site not given here)", "Array Verification": "NonBinder"}, {"sequence": "GLGKGGAKR [9-residue histone peptide, H4_DROME, trimethylated lysine site 16]", "Array Verification": "NonBinder"}, {"sequence": "APSTGGVKK (also: trimethylated Lys, site not given here) [9-residue histone peptide, H33_DROME, trimethylated lysine site 36]", "Array Verification": "NonBinder"}, {"sequence": "GRIHRHLKS (GRIHRHLK(Me3(3))S)", "Array Verification": "Binder"}, {"sequence": "HAVSEGTKA (HAVSEGTK(Me3(3))A)", "Array Verification": "NonBinder"}, {"sequence": "ASKDLKVKR (not fully specified (residue 8); also: trimethylated lysine, site not given here)", "Array Verification": "Binder"}, {"sequence": "APATGGVKK (not fully specified (residue 8); also: trimethylated lysine, site not given here) [9-residue histone peptide, H3_DROME, trimethylated lysine site 36]", "Array Verification": "NonBinder"}, {"sequence": "ELAGNASKD (ELAGNASK(Me3(3))D)", "Array Verification": "NonBinder"}, {"sequence": "EGTKAVTKY (also: trimethylated Lys, site not given here)", "Array Verification": "Binder"}, {"sequence": "VTYTEHAKR (VTYTEHAK(Me3(3))R) [9-residue histone peptide, H4_DROME, trimethylated lysine site 77]", "Array Verification": "NonBinder"}, {"sequence": "TGGKAPRKQ (also: trimethylated Lys, site not given here) [9-residue histone peptide, H3_DROME, trimethylated lysine site 18]", "Array Verification": "NonBinder"}, {"sequence": "SRLAHYNKR (SRLAHYNK(Me3(3))R)", "Array Verification": "NonBinder"}, {"sequence": "NLCAIHAKR (NLCAIHAK(Me3(3))R) [9-residue histone peptide, H3_DROME, trimethylated lysine site 115]", "Array Verification": "NonBinder"}, {"sequence": "YTEHAKRKT (YTEHAKRK(Me3)T) [9-residue histone peptide, H4_DROME, trimethylated lysine site 79]", "Array Verification": "NonBinder"}, {"sequence": "LARRGGVKR (LARRGGVK(Me3(3))R) [9-residue histone peptide, H4_DROME, trimethylated lysine site 44]", "Array Verification": "NonBinder"}, {"sequence": "EELDSLIKA (EELDSLI[Lys(Me3)]A)", "Array Verification": "NonBinder"}, {"sequence": "RTKQTARKS (also: trimethylated lysine, site not given here) [9-residue histone peptide, H3_DROME, trimethylated lysine site 9]", "Array Verification": "Binder"}, {"sequence": "GNASKDLKV (not fully specified (residue 8); also: trimethylated lysine, site not given here)", "Array Verification": "NonBinder"}, {"sequence": "IHKSLIGKK (not fully specified (residue 8); also: trimethylated lysine, site not given here)", "Array Verification": "NonBinder"}]}, {"target": "T2, Polycomb (Drosophila melanogaster, UniProt P26017)", "T2 sequence (P26017 1-390)": "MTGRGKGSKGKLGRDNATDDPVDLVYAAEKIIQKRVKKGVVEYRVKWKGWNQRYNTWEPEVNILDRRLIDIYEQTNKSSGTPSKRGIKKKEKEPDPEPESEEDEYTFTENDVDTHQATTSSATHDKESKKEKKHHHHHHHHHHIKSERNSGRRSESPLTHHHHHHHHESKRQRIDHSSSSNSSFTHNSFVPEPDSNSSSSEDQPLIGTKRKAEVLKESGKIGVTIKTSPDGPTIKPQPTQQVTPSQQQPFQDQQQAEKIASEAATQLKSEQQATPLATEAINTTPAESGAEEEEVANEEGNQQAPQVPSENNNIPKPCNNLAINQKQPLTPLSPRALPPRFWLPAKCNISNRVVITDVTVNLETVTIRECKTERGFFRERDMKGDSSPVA", "test": "not given", "settings": "from reference 2; read-out: Experimental dissociation constant; cited from earlier work", "units": {"Kd": "µM"}, "values": [{"sequence": "LATKAARKS [template histone H3 peptide L20 to S28 with trimethylated Lys27, reference compound]", "Kd": "5 ± 1"}]}, {"target": "Abl1 SH3 domain (Homo sapiens, UniProt P00519)", "sequence (P00519 61-121 limits assumed)": "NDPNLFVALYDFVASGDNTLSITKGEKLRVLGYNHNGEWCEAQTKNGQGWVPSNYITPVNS", "test": "Peptide microarray binding of GST-Abl SH3 fusion protein (Cy3 fluorescence)", "settings": "peptides printed at 1 mg/ml in triplicates, GST-Abl SH3 5 μM", "procedure": "The GST-tagged Abl SH3 domain fusion protein was purified as previously described (12). Protein concentration was determined using the Bradford Assay (Bio-Rad). The purity of the fusion protein was checked by electrophoresis on SDS-PAGE gel and coomassie blue staining. The fusion protein was also subjected to electrophoresis on SDS-PAGE gel, followed by Western blot using a horseradish peroxidase-conjugated anti-GST antibody (Santa Cruz Biotechnology) and the SuperSignal West chemiluminescent substrate (Pierce).\nAll peptides were synthesized by Sigma-Aldrich. The peptides were printed onto glass slides in triplicates by ArrayIt Corporation. […]\nThe peptide microarray was processed by the InnoScan 710 laser scanner (ArrayIt Corporation). Cy-3 fluorescence was detected using the 532 nm laser at 3 um resolution. The resulted microarray image was analyzed by the microarray image process software Mapix2.8.2 (ArrayIt Corporation). The fluorescent intensity of a microarray spot was defined as its own intensity minus the background intensity around it, as determined from the scanned image.\nTo print peptide microarrays, method of immobilizing the peptides on the glass surface, as well as the amount of peptide printed, needed to decide. […] Binding of GST-Abl SH3 to peptides generated a Cy3 fluorescent signal that was recorded on a laser scanner. […]", "values": [{"sequence": "PPDPPPPPLP [10-residue peptide of SHIP2_HUMAN 1050-1059]", "Average fluorescence intensity (high printing concentration)": 58833}]}]}
